Data from patent US20220073646A1 (Hoffmann-La Roche, published 2022).
Positions count from the first letter of the chain named. Names may count otherwise. Like-named read-outs stand apart in the source and are kept apart here. Each block holds one binder with its values, some of them ahead of it.

Experiments:
[1] = biological target: T1, recombinant human 4-1BB Fc(kih) (human, UniProt P0DOX5 223-449 = IgG part, biotin on C-terminal Avi tag where used biotinylated); test: SPR, captured IgG, 4-1BB Fc(kih) analyte
T1 construct: also called hu4-1BB; biotinylated human 4-1BB

[2] = biological target: T2, mouse 4-1BB on activated mouse splenocytes (mouse, UniProt P20334 24-256); test: flow cytometry, activated mouse T cells
[3] = biological target: T3, cynomolgus 4-1BB on activated cynomolgus PBMC (cynomolgus, UniProt Q07011 24-255 (human entry)); test: flow cytometry, activated cynomolgus CD8 T cells
T3 chain: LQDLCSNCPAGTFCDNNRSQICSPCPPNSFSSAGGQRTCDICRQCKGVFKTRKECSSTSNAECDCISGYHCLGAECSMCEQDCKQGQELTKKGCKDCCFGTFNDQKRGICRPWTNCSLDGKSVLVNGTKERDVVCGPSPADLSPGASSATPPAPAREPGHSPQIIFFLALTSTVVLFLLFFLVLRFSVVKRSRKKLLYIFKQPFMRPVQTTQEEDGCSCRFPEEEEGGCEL

human 4-1BB on cells [4] = biological target: T4, human 4-1BB on cells (human, UniProt Q07011 24-255); test: cell-based or functional assay
[5] = biological target: recombinant cynomolgus 4-1BB Fc(kih) (cynomolgus, UniProt P0DOX5 223-449 = IgG part, biotin on C-terminal Avi tag where used biotinylated); test: SPR, captured IgG, cyno 4-1BB Fc(kih) analyte
[6] = biological target: T5, hu4-1BB-SNAP fusion protein on Hek293 EBNA cells (human, UniProt Q07011 24-255, labeled with the FRET donor Terbium); test: cell FRET competition against d2-labeled anti-4-1BB tracer, 4 h
T5 construct: not shown: SNAP tag

human 4-1BB on cells [7] = biological target: T4, human 4-1BB on cells; test: flow cytometry, activated human CD8 T cells
[8] = biological target: T6, human fibroblast activation protein (huFAP) on cells (human, UniProt Q12884 1-760); test: flow cytometry, WM-266-4 and NIH/3T3-huFAP clone 19
T6 construct: also called NIH/3T3-huFAP clone 39; NIH/3T3-huFAP clone 19

human 4-1BB on cells [9] = biological target: T4, human 4-1BB on cells; test: flow cytometry, activated human CD8+ T cells
[10] = biological target: T3, cynomolgus 4-1BB on activated …; test: flow cytometry, activated cynomolgus CD4 T cells
[11] = biological target: T7, recombinant murine 4-1BB Fc(kih) (murine, UniProt P0DOX5 223-449 = IgG part, biotin on C-terminal Avi tag where used biotinylated); test: SPR avidity format, murine 4-1BB Fc(kih) on SA chip
T7 construct: also called mu4-1BB

[12] = biological target: T2, mouse 4-1BB on activated mouse …; test: flow cytometry, activated murine CD8 T cells
[13] = biological target: T2, mouse 4-1BB on activated mouse …; test: flow cytometry, activated murine CD4 T cells
[14] = biological target: T8, recombinant murine 4-1BB AcTEV (murine, UniProt P20334 24-187); test: SPR, captured IgG, murine 4-1BB AcTEV analyte
T8 construct: murine 4-1BB Fc(kih) cleaved with AcTEV protease, Fc removed
T8 sequence: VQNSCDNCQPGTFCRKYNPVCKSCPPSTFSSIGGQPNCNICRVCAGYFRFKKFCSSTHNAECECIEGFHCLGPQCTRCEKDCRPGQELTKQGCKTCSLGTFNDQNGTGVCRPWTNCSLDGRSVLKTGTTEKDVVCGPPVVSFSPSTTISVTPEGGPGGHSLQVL

human 4-1BB on cells [15] = biological target: T4, human 4-1BB on cells; test: flow cytometry, activated human T cells
[16] = biological target: T1, recombinant human 4-1BB Fc(kih); test: SPR
[17] = biological target: T9, recombinant murine GITR Fc(kih) (murine, UniProt P0DOX5 223-449 = IgG part, biotin on C-terminal Avi tag); test: SPR ProteOn XPR36, Fab as analyte
T9 construct: also called mu GITR-Fc

[18] = biological target: T10, recombinant cynomolgus GITR Fc(kih) (cynomolgus, UniProt P0DOX5 223-449 = IgG part, biotin on C-terminal Avi tag where used biotinylated); test: SPR ProteOn XPR36, biotinylated GITR-Fc on NLC chip, Fab analyte
T10 construct: also called cy GITR-Fc

[19] = biological target: T11, recombinant human GITR Fc(kih) (human, UniProt P0DOX5 223-449 = IgG part, biotin on C-terminal Avi tag where used biotinylated); test: as above
T11 construct: also called hu GITR-Fc; human monomeric GITR-Fc fusion

[20] = biological target: T12, human FAP (His-tagged ectodomain) (human, UniProt Q12884 27-760); test: SPR, human FAP as second analyte
T12 construct: SPR texts say 'human FAP' or 'His-tagged ... dimeric FAP'; also called hu FAP; human FAP (analyte 2)

[21] = biological target: T13, cynomolgus OX40 on activated cynomolgus PBMC (cynomolgus, UniProt P43489 29-214 (human entry)); test: flow cytometry, activated cynomolgus CD4 T cells
T13 construct: whole, on cells
T13 chain: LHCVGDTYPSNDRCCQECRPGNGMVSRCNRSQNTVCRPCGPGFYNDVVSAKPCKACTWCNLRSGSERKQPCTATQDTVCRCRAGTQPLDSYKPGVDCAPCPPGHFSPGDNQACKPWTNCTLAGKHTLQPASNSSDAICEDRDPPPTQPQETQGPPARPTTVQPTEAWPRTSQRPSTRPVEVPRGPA

human OX40 on cells [22] = biological target: T14, human OX40 on cells (human, UniProt P43489 29-277); test: flow cytometry, activated human CD4 T cells
T14 sequence: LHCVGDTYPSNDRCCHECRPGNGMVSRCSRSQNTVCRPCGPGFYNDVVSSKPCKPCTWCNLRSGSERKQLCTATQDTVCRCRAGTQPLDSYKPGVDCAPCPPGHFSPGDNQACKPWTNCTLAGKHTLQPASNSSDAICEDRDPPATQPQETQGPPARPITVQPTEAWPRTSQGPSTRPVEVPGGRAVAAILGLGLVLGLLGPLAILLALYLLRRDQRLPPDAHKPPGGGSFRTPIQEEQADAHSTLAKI

[23] = biological target: T13, cynomolgus OX40 on activated cynomolgus …; test: flow cytometry, activated cynomolgus CD4 T cells
human OX40 on cells [24] = biological target: T14, human OX40 on cells; test: cell-based or functional assay
[25] = biological target: recombinant murine OX40 Fc(kih) (murine, UniProt P0DOX5 223-449 = IgG part, biotin on C-terminal Avi tag); test: SPR avidity format, murine OX40 Fc(kih) on SA chip
[26] = biological target: T15, recombinant human OX40 His (human); test: SPR, captured IgG, OX40 His analyte
T15 construct: ectodomain with avi and hexahistidine tag; also called human Ox40 avi His
T15 chain: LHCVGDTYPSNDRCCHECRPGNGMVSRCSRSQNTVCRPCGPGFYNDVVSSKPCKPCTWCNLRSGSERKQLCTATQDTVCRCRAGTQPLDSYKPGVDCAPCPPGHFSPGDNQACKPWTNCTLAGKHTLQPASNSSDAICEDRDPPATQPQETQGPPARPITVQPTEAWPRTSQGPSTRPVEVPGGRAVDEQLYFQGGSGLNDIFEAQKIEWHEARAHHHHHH

[27] = biological target: T16, dimeric human OX40 Fc fusion with a C-terminal Ha tag (human); test: SPR, OX40 Fc held on OX40 ligand
T16 construct: also called recombinant human Ox40 Fc; huOx40-Fc

human OX40 on cells [28] = biological target: T14, human OX40 on cells; test: cell-based or functional assay; remark: listed apart in the source
[29] = biological target: recombinant cynomolgus OX40 Fc(kih) (cynomolgus, UniProt P0DOX5 223-449 = IgG part, biotin on C-terminal Avi tag where used biotinylated); test: SPR, captured IgG, cyno OX40 Fc(kih) analyte
human OX40 on cells [30] = biological target: T14, human OX40 on cells; test: flow cytometry, activated human CD4 T cells; remark: listed apart in the source
[31] = biological target: T17, recombinant human OX40 Fc(kih) (human, UniProt P0DOX5 223-449 = IgG part, biotin on C-terminal Avi tag where used biotinylated); test: SPR, captured IgG, OX40 Fc(kih) analyte
T17 construct: antigen Fc knob chain plus Fc hole chain; also called monomeric human OX40 antigen Fc(kih) fusion; biotinylated human OX40

[32] = biological target: T18, recombinant murine OX40 (cleaved by AcTEV digestion) (murine, UniProt P47741 20-211); test: SPR, captured IgG, AcTEV-cleaved murine OX40 analyte
T18 construct: Fc removed from murine OX40 Fc(kih)
T18 sequence: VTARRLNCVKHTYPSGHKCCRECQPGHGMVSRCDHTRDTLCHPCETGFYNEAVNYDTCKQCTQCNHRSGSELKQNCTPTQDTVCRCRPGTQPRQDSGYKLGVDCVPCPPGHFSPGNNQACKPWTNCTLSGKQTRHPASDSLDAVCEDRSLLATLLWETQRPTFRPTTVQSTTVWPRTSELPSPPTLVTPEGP

binding result [17]: no binding
Kd [18]: 67 nM
Kd [19]: 4.4 nM
B3: clone 8A06 purified Fab (Fab, V domains shown)
VH: QVQLVQSGAEVKKPGSSVKVSCKASGGTFSSYAISWVRQAPGQGLEWMGGIIPIFGTANYAQKFQGRVTITADKSTSTAYMELSSLRSEDTAVYYCARGYYAIDYWGQGTTVTVSS
VL: SSELTQDPAVSVALGQTVRITCQGDSLRSYYASWYQQKPGQAPVLVIYGKNNRPSGIPDRFSGSSSGNTASLTITGAQAEDEADYYCNSPQTSGSAVFGGGTKLTVL
notes: bacterially expressed Fab of the lambda-DP88 library with CH1/CL and tags; also called 8A06 (Fab-format)

binding result [20]: no binding (tested: 250 nM)
EC50 [21]: 0.07 nM
EC50 (human OX40 on cells [22]): 0.11 nM
B4: OX40(49B4)/DP47 P329GLALA IgG1 4+2 (bispecific antibody)
heavy: not shown
light 1: DIQMTQSPSTLSASVGDRVTITCRASQSISSWLAWYQQKPGKAPKLLIYDASSLESGVPSRFSGSGSGTEFTLTISSLQPDDFATYYCQQYSSQPYTFGQGTKVEIKRTVAAPSVFIFPPSDRKLKSGTASVVCLLNNFYPREAKVQWKVDNALQSGNSQESVTEQDSKDSTYSLSSTLTLSKADYEKHKVYACEVTHQGLSSPVTKSFNRGEC
light 2: not shown
notes: also called 4+2 (49B4/DP47); untargeted 4+2 construct

Continued, binder first:

B1: 12B3 P329GLALA IgG1 (antibody, V domains shown)
VH: QVQLVQSGAEVKKPGSSVKVSCKASGGTFSSYAISWVRQAPGQGLEWMGGIIPIFGTANYAQKFQGRVTITADKSTSTAYMELSSLRSEDTAVYYCARSEFRFYADFDYWGQGTTVTVSS
VL: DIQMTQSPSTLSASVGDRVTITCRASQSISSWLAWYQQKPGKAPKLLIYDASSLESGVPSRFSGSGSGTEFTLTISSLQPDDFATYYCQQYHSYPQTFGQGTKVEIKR
notes: anti-4-1BB; also called 12B3 IgG; 12B3 huIgG1 P329G LALA
Kd [1]: 30 nM
koff [1]: 0.001 s⁻¹
kon [1]: 34000 M⁻¹ s⁻¹
binding result [2]: no binding
EC50 [3]: 0.47 nM
EC50 of increase of IFNγ secretion in activated CD8+ T cells (surface-immobilized IgG) (human 4-1BB on cells [4]): 0.07 nM
Kd [5]: 20 nM
koff [5]: 0.00078 s⁻¹
kon [5]: 38000 M⁻¹ s⁻¹
EC50 [6]: 1.4 nM
bracketed interval of the EC50 (not explained) [6]: 0.9 to 2.1 nM
EC50 (human 4-1BB on cells [7]): 0.95 nM
binding result [8]: no binding
EC50 (human 4-1BB on cells [9]): 0.4 nM
EC50 [10]: 0.59 nM

B2: 20G2 P329GLALA IgG1 (antibody, V domains shown)
VH: B1 VH with E100Y, F101Y, R102W, F103E, Y104S, A105Y, D106P
VL: DIQMTQSPSTLSASVGDRVTITCRASQSISSWLAWYQQKPGKAPKLLIYDASSLESGVPSRFSGSGSGTEFTLTISSLQPDDFATYYCQQQHSYYTFGQGTKVEIKR
notes: also called anti-mouse 4-1BB clone 20G2 huIgG1 P329G LALA
binding result [11]: binds
EC50 [12]: 16.4 nM
EC50 [13]: 10.1 nM
Kd [14]: 14 nM
koff [14]: 0.00034 s⁻¹
kon [14]: 24000 M⁻¹ s⁻¹
binding result (human 4-1BB on cells [15]): no binding
binding result [16]: no binding

B5: 20B7 P329GLALA IgG1 (antibody, V domains shown)
VH: QVQLVQSGAEVKKPGSSVKVSCKASGGTFSSYAISWVRQAPGQGLEWMGGIIPIFGTANYAQKFQGRVTITADKSTSTAYMELSSLRSEDTAVYYCARVNYPYSYWGDFDYWGQGTTVTVSS
VL: DIQMTQSPSTLSASVGDRVTITCRASQSISSWLAWYQQKPGKAPKLLIYDASSLESGVPSRFSGSGSGTEFTLTISSLQPDDFATYYCQQYQAFSLTFGQGTKVEIKR
notes: anti-OX40
EC50 [23]: 1.52 nM
EC50 of NFκB activation in HeLa_hOx40_NFκB_luc1 reporter cells with secondary anti-human IgG Fcγ antibody (human OX40 on cells [24]): 2.27 nM
binding result [25]: binds
Kd [26]: 5.6 nM
koff [26]: 0.00066 s⁻¹
kon [26]: 120000 M⁻¹ s⁻¹
binding result [27]: binds
EC50 of rescuing suboptimal TCR stimulation with plate-immobilized anti-OX40 binder (preactivated human CD4 T cells) (human OX40 on cells [28]): 0.09 nM
Kd [29]: 1100 nM
koff [29]: 0.0166 s⁻¹
kon [29]: 15700 M⁻¹ s⁻¹
EC50 (human OX40 on cells [30]): 1.64 nM
Kd [31]: 42 nM
koff [31]: 0.0013 s⁻¹
kon [31]: 32000 M⁻¹ s⁻¹
Kd [32]: 360 nM
koff [32]: 0.018 s⁻¹
kon [32]: 49000 M⁻¹ s⁻¹
